Reference: patent publication US20090233317

Tests used:
[1] = test system: hsGRIM1 (human Global Repressor Involved in Myogenic differentiation), full length aa 1-749
[2] = test system: recombinantly expressed GRIM1 aa 3-147

HAT domain of p300 (bacterially expressed)
acetylation of GRIM1 [1]: detection of direct acetylation of GRIM1 (aa3-147 and of full-length GRIM1) by the HAT domain of p300 | acetylation of GRIM1 [2]: detection of direct acetylation of GRIM1 (aa3-147 and of full-length GRIM1) by the HAT domain of p300
